Measured values as given in paper PMC13066552 (Nature Communications, 2026).

Tests used:
[1] = biological target: Bpa 31-146 (Mycobacterium tuberculosis) (UniProt P9WKX3); experiment: NMR titration
native MS = biological target: the molecule itself; experiment: native MS
[2] = biological target: the molecule itself; experiment: methyl-TROSY NMR spectra compared

## DNA-binding domain of human Telomeric Repeat-binding Factor 1 (residues 378-430) (domain or fragment)
[1]
  Kd: 1.5 µM

B1: Mycobacterium tuberculosis bacterial proteasome activator Bpa, full-length wild type (natural protein)
chain: MVIGLSTGSDDDDVEVIGGVDPRLIAVQENDSDESSLTDLVEQPAKVMRIGTMIKQLLEEVRAAPLDEASRNRLRDIHATSIRELEDGLAPELREELDRLTLPFNEDAVPSDAELRIAQAQLVGWLEGLFHGIQTALFAQQMAARAQLQQMRQGALPPGVGKSGQHGHGTGQYL
Native MS
  stoichiometry N: 2 subunits

B2: Bpa 31-146 (domain or fragment)
chain: DSDESSLTDLVEQPAKVMRIGTMIKQLLEEVRAAPLDEASRNRLRDIHATSIRELEDGLAPELREELDRLTLPFNEDAVPSDAELRIAQAQLVGWLEGLFHGIQTALFAQQMAARA
[2]
  stoichiometry N: 12 subunits
